B1: BRCA2-C (residues 966-1596, 2477-3194, 3265-3330)-eGFP (domain or fragment, human, UniProt P51587 966-1596, looked up)
chain: TLGQDLKSDISLNIDKIPEKNNDYMNKWAGLLGPISNHSFGGSFRTASNKEIKLSEHNIKKSKMFFKDIEEQYPTSLACVEIVNTLALDNQKKLSKPQSINTVSAHLQSSVVVSDCKNSHITPQMLFSKQDFNSNHNLTPSQKAEITELSTILEESGSQFEFTQFRKPSYILQKSTFEVPENQMTILKTTSEECRDADLHVIMNAPSIGQVDSSKQFEGTVEIKRKFAGLLKNDCNKSASGYLTDENEVGFRGFYSAHGTKLNVSTEALQKAVKLFSDIENISEETSAEVHPISLSSSKCHDSVVSMFKIENHNDKTVSEKNNKCQLILQNNIEMTTGTFVEEITENYKRNTENEDNKYTAASRNSHNLEFDGSDSSKNDTVCIHKDETDLLFTDQHNICLKLSGQFMKEGNTQIKEDLSDLTFLEVAKAQEACHGNTSNKEQLTATKTEQNIKDFETSDTFFQTASGKNISVAKESFNKIVNFFDQKPEELHNFSLNSELHSDIRKNKMDILSYEETDIVKHKILKESVPVGTGNQLVTFQGQPERDEKIKEPTLLGFHTASGKKVKIAKESLDKVKNLFDEKEQGTSEITSFSHQWAKTLKYREACKDLELACETIEITAAPKCKEMQNPLDLITSLQNARDIQDMRIKKKQRQRVFPQPGSLYLAKTSTLPRISLKAAVGGQVPSACSHKQLYTYGVSKHCIKINSKNAESFQFHTEDYFGKESLWTGKGIQLADGGWLIPSNDGKAGKEEFYRALCDTPGVDPKLISRIWVYNHYRWIIWKLAAMECAFPKEFANRCLSPERVLLQLKYRYDTEIDRSRRSAIKKIMERDDTAAKTLVLCVSDIISLSANISETSSNKTSSADTQKVAIIELTDGWYAVKAQLDPPLLAVLKNGRLTVGQKIILHGAELVGSPDACTPLEAPESLMLKISANSTRPARWYTKLGFFPDPRPFPLPLSSLFSDGGNVGCVDVIIQRAYPIQWMEKTSSGLYIFRNEREEEKEAAKYVEAQQKRLEALFTKIQEEFEEHEENTTKPYLPSRALTRQQVRALQDGAELYEAVKNAADPAYLEGYFSEEQLRALNNHRQMLNDKKQAQIQLEIRKAMESAEQKEQGLSRDVTTVWKLRIVSYSKKEKDSVILSIWRPSSDLYSLLTEGKRYRIYHLATSKSKSKSERANIQLAATKKTQYQQLPVSDEILFQIYQPREPLHFSKFLDPDFQPSCSEVDLIGFVVSVVKKTGLAPFVYLSDECYNLLAIKFWIDLNEDIIKPHMLIAASNLQWRPESKSGLLTLFAGDFSVFSASPKEGHFQETFNKMKNTVENIDILCNEAENKLMHILHANDPKWSTPCKKRRALDFLSRLPLPPPVSPICTFVSPAAQKAFQPPRSCGTKYETPIKKKELNSPQMTPFKKFNE
notes: BRCA2, human, residues 966-1596 (BRC repeats 1-4); BRCA2, human, residues 2477-3194 (C-DBD); BRCA2, human, residues 3265-3330 (TR2); No linkers between the three stretches are stated; source: High Five insect cells, baculovirus (pFBDM-BRCA2-C, MultiBac), purified (StrepTrap, Heparin); not shown: eGFP, C-terminal, kept
B2: 167mer 3' tailed DNA (mixed)
DNA 1: CTGCTTTATCAAGATAATTTTTCGACTCATCAGAAATATCCGTTTCCTATATTTATTCCTATTATGTTTTATTCATTTACTTATTCTTTATGTTCATTTTTTATATCCTTTACTTTATTTTCTCTGTTTATTCATTTACTTATTTTGTATTATCCTTATCTTATTTA
DNA 2: CGGATATTTCTGATGAGTCGAAAAATTATCTTGATAAAGCAG
B3: RAD51 C319S labelled with Alexa Fluor 647 C2 maleimide (natural protein, human, UniProt Q06609 1-339, looked up)
chain: MAMQMQLEANADTSVEEESFGPQPISRLEQCGINANDVKKLEEAGFHTVEAVAYAPKKELINIKGISEAKADKILAEAAKLVPMGFTTATEFHQRRSEIIQITTGSKELDKLLQGGIETGSITEMFGEFRTGKTQICHTLAVTCQLPIDRGGGEGKAMYIDTEGTFRPERLLAVAERYGLSGSDVLDNVAYARAFNTDHQTQLLYQASAMMVESRYALLIVDSATALYRTDYSGRGELSARQMHLARFLRMLLRLADEFGVAVVITNQVVAQVDGAAMFAADPKKPIGGNIIAHASTTRLYLRKGRGETRICKIYDSPSLPEAEAMFAINADGVGDAKD
modifications: Alexa Fluor 647 C2 maleimide (labelled residue not stated; protein to dye ratio 0.9-1.0)
notes: RAD51 recombinase, human, C319S variant; also called RAD51(A647); RAD-51(A647); source: E. coli BLR(DE3)pLysS (pET11c-RAD51 C319S), purified (ammonium sulphate, Q Sepharose, Heparin, Mono Q), then labelled

Tests used:
[1] = target: BRCA2-eGFP;RAD51(A647) (Homo sapiens;Homo sapiens) (UniProt P51587); test: single-molecule optical tweezers/confocal; details: EMSA: 4 nM Cy5-DNA, 20 mM HEPES pH 7.5, 1 mM MgCl2, 1 mM TCEP, 100 mM KCl, 24 C, 5 min, single-molecule (Fig 1): 100 mM NaCl, 2 mM MgCl2, 1 mM CaCl2, 2 mM ATP …
Sequence of BRCA2-eGFP;RAD51(A647) (Homo sapiens;Homo sapiens) (P51587 whole entry, looked up): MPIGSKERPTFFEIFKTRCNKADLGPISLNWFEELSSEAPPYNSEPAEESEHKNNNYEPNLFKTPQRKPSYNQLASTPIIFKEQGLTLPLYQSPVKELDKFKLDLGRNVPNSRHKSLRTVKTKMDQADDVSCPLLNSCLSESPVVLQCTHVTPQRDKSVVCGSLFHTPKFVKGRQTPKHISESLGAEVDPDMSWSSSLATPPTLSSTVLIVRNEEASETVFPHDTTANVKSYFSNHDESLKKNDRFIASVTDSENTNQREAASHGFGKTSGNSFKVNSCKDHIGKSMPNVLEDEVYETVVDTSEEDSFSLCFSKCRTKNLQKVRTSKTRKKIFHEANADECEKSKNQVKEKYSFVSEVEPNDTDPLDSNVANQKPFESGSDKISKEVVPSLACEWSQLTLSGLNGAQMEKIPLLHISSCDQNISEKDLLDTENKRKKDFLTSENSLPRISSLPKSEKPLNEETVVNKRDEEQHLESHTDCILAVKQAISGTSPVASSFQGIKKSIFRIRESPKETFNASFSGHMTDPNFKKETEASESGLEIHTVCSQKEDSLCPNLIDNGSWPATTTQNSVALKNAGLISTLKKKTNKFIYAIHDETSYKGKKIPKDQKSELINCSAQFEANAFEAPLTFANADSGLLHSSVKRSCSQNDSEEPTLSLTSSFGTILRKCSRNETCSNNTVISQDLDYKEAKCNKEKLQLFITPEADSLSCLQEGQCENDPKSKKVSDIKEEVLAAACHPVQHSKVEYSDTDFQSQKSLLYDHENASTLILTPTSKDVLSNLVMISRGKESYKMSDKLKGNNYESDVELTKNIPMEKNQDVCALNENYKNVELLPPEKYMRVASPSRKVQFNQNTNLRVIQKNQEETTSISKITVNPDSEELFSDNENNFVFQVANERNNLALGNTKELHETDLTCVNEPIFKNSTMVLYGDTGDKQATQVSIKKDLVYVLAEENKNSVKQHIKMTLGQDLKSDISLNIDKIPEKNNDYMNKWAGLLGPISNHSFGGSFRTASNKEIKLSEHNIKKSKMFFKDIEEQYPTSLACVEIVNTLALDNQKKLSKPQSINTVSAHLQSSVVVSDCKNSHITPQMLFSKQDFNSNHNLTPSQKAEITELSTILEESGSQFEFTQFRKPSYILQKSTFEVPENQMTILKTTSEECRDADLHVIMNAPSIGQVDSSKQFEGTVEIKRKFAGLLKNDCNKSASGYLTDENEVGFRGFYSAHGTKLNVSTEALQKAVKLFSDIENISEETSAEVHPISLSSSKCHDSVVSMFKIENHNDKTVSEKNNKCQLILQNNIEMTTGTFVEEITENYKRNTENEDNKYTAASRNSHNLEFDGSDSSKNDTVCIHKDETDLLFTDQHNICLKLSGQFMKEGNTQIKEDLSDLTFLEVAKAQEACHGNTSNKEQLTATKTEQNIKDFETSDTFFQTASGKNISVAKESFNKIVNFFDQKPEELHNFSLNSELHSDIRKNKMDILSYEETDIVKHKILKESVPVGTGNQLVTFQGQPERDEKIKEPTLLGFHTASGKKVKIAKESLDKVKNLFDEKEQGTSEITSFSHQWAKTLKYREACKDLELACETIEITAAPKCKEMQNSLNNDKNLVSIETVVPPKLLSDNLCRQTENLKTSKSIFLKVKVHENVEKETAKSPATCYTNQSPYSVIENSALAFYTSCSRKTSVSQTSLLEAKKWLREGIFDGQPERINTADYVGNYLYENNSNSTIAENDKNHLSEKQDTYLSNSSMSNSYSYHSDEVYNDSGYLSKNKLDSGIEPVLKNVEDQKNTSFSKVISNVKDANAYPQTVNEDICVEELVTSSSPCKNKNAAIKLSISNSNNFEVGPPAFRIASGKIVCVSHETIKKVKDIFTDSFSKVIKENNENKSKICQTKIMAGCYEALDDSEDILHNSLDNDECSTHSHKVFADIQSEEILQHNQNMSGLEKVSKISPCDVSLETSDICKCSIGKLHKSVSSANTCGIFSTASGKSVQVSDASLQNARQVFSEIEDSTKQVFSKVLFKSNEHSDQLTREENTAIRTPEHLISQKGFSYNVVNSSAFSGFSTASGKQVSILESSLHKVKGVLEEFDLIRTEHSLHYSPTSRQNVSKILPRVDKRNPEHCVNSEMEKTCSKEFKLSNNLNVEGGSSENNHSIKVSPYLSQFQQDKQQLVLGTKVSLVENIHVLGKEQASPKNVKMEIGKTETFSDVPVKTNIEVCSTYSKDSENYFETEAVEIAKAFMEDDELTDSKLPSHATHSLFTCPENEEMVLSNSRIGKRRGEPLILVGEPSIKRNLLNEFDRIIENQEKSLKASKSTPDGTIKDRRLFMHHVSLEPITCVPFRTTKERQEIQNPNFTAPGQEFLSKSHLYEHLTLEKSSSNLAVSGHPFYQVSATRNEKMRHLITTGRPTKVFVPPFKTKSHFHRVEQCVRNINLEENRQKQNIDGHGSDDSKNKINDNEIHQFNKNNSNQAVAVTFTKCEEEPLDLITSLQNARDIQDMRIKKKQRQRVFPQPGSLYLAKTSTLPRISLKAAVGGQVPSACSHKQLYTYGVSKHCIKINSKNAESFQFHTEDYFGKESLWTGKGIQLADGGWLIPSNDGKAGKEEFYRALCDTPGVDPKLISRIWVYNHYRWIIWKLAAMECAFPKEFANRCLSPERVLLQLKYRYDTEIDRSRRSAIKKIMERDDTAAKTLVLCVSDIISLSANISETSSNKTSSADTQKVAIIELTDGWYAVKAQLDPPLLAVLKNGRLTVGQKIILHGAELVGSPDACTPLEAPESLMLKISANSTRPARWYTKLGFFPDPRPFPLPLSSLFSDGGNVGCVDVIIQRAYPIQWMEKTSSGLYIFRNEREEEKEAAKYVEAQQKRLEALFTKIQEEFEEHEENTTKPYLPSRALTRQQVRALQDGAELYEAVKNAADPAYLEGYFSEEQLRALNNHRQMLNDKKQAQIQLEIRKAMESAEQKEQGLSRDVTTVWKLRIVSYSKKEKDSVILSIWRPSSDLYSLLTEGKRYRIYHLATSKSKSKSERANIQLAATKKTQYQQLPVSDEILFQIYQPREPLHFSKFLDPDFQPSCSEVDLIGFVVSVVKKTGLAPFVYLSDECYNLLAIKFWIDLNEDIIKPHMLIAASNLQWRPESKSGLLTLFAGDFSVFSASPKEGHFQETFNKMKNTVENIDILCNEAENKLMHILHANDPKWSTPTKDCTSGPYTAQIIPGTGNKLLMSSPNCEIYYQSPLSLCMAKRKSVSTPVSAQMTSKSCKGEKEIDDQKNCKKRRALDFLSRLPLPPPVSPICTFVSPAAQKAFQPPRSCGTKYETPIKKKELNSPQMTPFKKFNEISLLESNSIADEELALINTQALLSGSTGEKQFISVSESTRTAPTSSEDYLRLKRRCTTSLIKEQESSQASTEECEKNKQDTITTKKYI

[2] = test system: RAD51(A647) (Homo sapiens); test: single-molecule optical tweezers/confocal; details: biotinylated hairpin end caps, EMSA: 4 nM Cy5-DNA, 20 mM HEPES pH 7.5, 1 mM MgCl2, 1 mM TCEP, 100 mM KCl, 24 C, 5 min, single-molecule (Fig 1): 100 mM NaCl, 2 mM MgCl2, 1 mM CaCl2, 2 mM ATP …
[3] = target: B3; test: single-molecule confocal fluorescence imaging with dual optical trapping (C-trap); BRCA2-eGFP (full length or truncation) and 20 nM RAD51(A647) moving together on lambda dsDNA held at 10 pN; 50 mM Tris-HCl pH 7.5, 50 mM NaCl or as indicated (25-150 mM), 2 mM MgCl2, 2 mM ATP, 0.2 mg/ml BSA; details: both partners purified
BRCA2-eGFP = BRCA2-eGFP (Homo sapiens, UniProt P51587 1-3418); test: EMSA; retains high ssDNA affinity; EMSA: 4 nM Cy5-DNA, 20 mM HEPES pH 7.5, 1 mM MgCl2, 1 mM TCEP, 100 mM KCl, 24 C, 5 min; single-molecule (Fig 1): 100 mM NaCl, 2 mM MgCl2, 1 mM CaCl2, 2 mM ATP; details: protein: recombinant; tags: C-terminal Ala8 linker, eGFP(A207K), Flag3; label: 5'-Cy5 on strand 1; 42 bp duplex, 3' overhang on strand 1
[4] = target: T1, full-length human BRCA2-eGFP (human, UniProt P51587 1-3418); test: single-molecule confocal fluorescence imaging with dual optical trapping (C-trap); 5 nM BRCA2-eGFP and 25 nM RAD51(A647) together in solution; order of their arrival on gapped lambda DNA held between beads; 50 mM Tris-HCl pH 7.5, 100 mM NaCl, 2 mM MgCl2, 1 mM CaCl2, 2 mM ATP, 0.2 mg/ml BSA; with or without 1.25 nM RPA; details: both partners purified
T1 construct: breast cancer susceptibility protein 2 (BRCA2), human, full length, 3,418 amino acids; Sf9 codon-optimised gene; Order on the chain: BRCA2, (alanine)8 linker, monomeric eGFP A207K (so in the source), Flag3; Eluted from FLAG resin with Flag3 peptide; no tag cleavage is described; also called BRCA2 fl; fl BRCA2; source: Sf9 insect cells, baculovirus (pFB-BRCA2-eGFP), purified (FLAG M2 agarose, SP …)

[5] = target: T2, BRCA2-C2 (residues 966-3418)-eGFP (human, UniProt P51587 966-3418); test: single-molecule confocal fluorescence imaging with dual optical trapping (C-trap); BRCA2-eGFP (full length or truncation) and 20 nM RAD51(A647) moving together on lambda dsDNA held at 10 pN; 50 mM Tris-HCl pH 7.5, 50 mM NaCl or as indicated (25-150 mM), 2 mM MgCl2, 2 mM ATP, 0.2 mg/ml BSA; details: both partners purified
T2 construct: BRCA2, human, residues 966-3418 (BRC repeats 1-8, C-DBD, TR2, full exC-DBR; lacks N-DBD); source: High Five insect cells, baculovirus (pFBDM-BRCA2-C2, MultiBac), purified (StrepTrap, Heparin); not shown: eGFP, C-terminal, kept

[6] = target: T3, BRCA2-N (residues 1-2142)-eGFP (human, UniProt P51587 1-2142); test: as above; details: both partners purified
T3 construct: BRCA2, human, residues 1-2142 (N-DBD and BRC repeats 1-8; lacks C-DBD, TR2 and exC-DBR); also called N-DBD-BRC1-8 truncated protein; source: High Five insect cells, baculovirus (pFBDM-BRCA2-N, MultiBac), purified (StrepTrap, Heparin); not shown: eGFP, C-terminal, kept

With gapped lambda DNA (gDNA), ssDNA gap the binding signal (fold nucleation rate vs RAD51 alone) ([1]; 5 nM BRCA2-eGFP, 25 nM RAD51, 2 mM ATP, no RPA, biotinylated hairpin end caps) was 2.7, the binding signal (s (RAD51 cluster dwell time)) ([1]; with BRCA2-eGFP, biotinylated hairpin end caps) was 102 and the binding signal (nuclei knt-1 min-1 (nucleation rate)) ([2]; 1.25 nM RPA, 2 mM ATP) was 0.003. It also gave a binding signal (nuclei knt-1 min-1 (nucleation rate)) ([2]; 25 nM RAD51, 2 mM ATP, no RPA) of 0.277 and a binding signal (s (cluster dwell time)) ([2]; no BRCA2) of 27.2.

Molecule “lambda dsDNA (including dsDNA arms of gDNA)” has a binding signal (um2 s-1 (1D diffusion coefficient)) ([1]; sliding on dsDNA, biotinylated ends) of 0.04.

B1: binds [3].

B2: binds (BRCA2-eGFP).

B3: binds [4]; binds [5]; binds [6].
